What was measured:
Settings in all cases: both partners purified
E292K-DAF-21 [1] = target: T1, E292K-DAF-21 (C. elegans, UniProt Q18688 1-702, E292K); assay: AUC; sedimentation velocity with fluorescence detection; fluorescein-labelled cofactor 300 nM, DAF-21 or variant 6 µM; no nucleotide; 20 to 22°C, 42.000 r.p.m.; dc/dt analysis
T1 construct: DAF-21, the Hsp90 homolog of Caenorhabditis elegans, with the point mutation of the allele daf-21(p673); The mutation occurs in the nematode strain JT6130 (daf-21(p673)); The recombinant variant was made from the daf-21 cDNA; also called E292K variant; DAF-21 of daf-21(p673), strain JT6130; source: E. coli BL21-CodonPlus (DE3)-RIL, purified (HisTrap FF, ResourceQ, Superdex SEC); not shown: His …

DAF-21 [2] = target: T2, DAF-21 (C. elegans, UniProt Q18688 1-702); assay: as above
T2 construct: DAF-21, the Hsp90 homolog of Caenorhabditis elegans; also called Hsp90; wt-DAF-21; source: E. coli BL21-CodonPlus (DE3)-RIL, purified (HisTrap FF, ResourceQ, Superdex SEC); not shown: His tag (from the vector pET28b)

E292K-DAF-21 [3] = target: T1, E292K-DAF-21; assay: AUC; sedimentation velocity with fluorescence detection; fluorescein-labelled cofactor 300 nM, DAF-21 or variant 6 µM; with 4 mM AMP-PNP; 20 to 22°C, 42.000 r.p.m.; dc/dt analysis
DAF-21 [4] = target: T2, DAF-21; assay: as above

B1: STI-1, fluorescein-labelled (natural protein, C. elegans, UniProt O16259 1-320, looked up)
chain: MTDAAIAEKDLGNAAYKQKDFEKAHVHYDKAIELDPSNITFYNNKAAVYFEEKKFAECVQFCEKAVEVGRETRADYKLIAKAMSRAGNAFQKQNDLSLAVQWFHRSLSEFRDPELVKKVKELEKQLKAAERLAYINPELAQEEKNKGNEYFKKGDYPTAMRHYNEAVKRDPENAILYSNRAACLTKLMEFQRALDDCDTCIRLDSKFIKGYIRKAACLVAMREWSKAQRAYEDALQVDPSNEEAREGVRNCLRSNDEDPEKAKERSLADPEVQEILRDPGMRMILEQMSNDPGAVREHLKNPEIFQKLMKLRDAGVIQMR
modifications: 5-carboxyfluorescein (N-succinimidyl ester) at lysine residues
notes: STI-1, TPR-containing cofactor of Hsp90 in Caenorhabditis elegans; also called labelled STI-1; source: E. coli BL21-CodonPlus (DE3)-RIL, purified (HisTrap FF, ResourceQ, Superdex SEC); not shown: His tag (from the vector pET28b)
B1: binds (E292K-DAF-21 [1]); binds (DAF-21 [2]).

B2: Cep23 (ZC395.10), fluorescein-labelled (natural protein, C. elegans, UniProt Q23280 1-175, looked up)
chain: MAKQPTVLWAQRESLVYLTIEVDEAKIEELKGEGNKLHFQGSSKTDKYEATLEFFDEIDPASVKHTGSSTRVVEITVQKKTPAWWPRLLQNKGKVHWLKVDFGKWKDEDEDDEAEDAGAGIGGGMANGFDLNQYMSQMGGAGGADFGGLEDDEEDDDMPDLEDNEEEEGKNGTRA
modifications: 5-carboxyfluorescein (N-succinimidyl ester) at lysine residues
notes: Cep23, the p23 cofactor of Hsp90 in Caenorhabditis elegans (ZC395.10); also called Labelled Cep23; source: E. coli BL21-CodonPlus (DE3)-RIL, purified (HisTrap FF, ResourceQ, Superdex SEC); not shown: His tag (from the vector pET28b)
B2: binds (E292K-DAF-21 [3]); binds (DAF-21 [4]).

— publication PMC3182237, “Downregulation of the Hsp90 System Causes Defects in Muscle Cells of Caenorhabditis Elegans” (PLoS ONE, 2011)
